Source: patent US9046519

Columns and labels:
[1] = biological target: TSHR Arg255 to Asp (human) (UniProt P16473); test: cell-based or functional assay
[2] = biological target: human thyrotropin receptor (TSHR), wild type, full length (human) (UniProt P16473); test: cell-based or functional assay

Cyclic AMP produced (fmol/cell well), hMAb TSHR1 IgG 1 ng/mL (fmol/cell well) [1]: 940
Cyclic AMP produced (fmol/cell well), hMAb TSHR1 IgG 10 ng/mL (fmol/cell well) [1]: 3160
Cyclic AMP produced (fmol/cell well), hMAb TSHR1 IgG 100 ng/mL (fmol/cell well) [1]: 5700
Cyclic AMP produced (fmol/cell well), hMAb TSHR1 IgG 1 µg/mL (fmol/cell well) [1]: 5030
Mutated/Wild type (%), hMAb TSHR1 IgG 1 ng/mL [1]: 19%
Mutated/Wild type (%), hMAb TSHR1 IgG 10 ng/mL [1]: 19%
Mutated/Wild type (%), hMAb TSHR1 IgG 100 ng/mL [1]: 37%
Cyclic AMP produced (fmol/cell well), hMAb TSHR1 IgG 1 ng/mL (fmol/cell well) [2]: 4860
Cyclic AMP produced (fmol/cell well), hMAb TSHR1 IgG 10 ng/mL (fmol/cell well) [2]: 16200
Cyclic AMP produced (fmol/cell well), hMAb TSHR1 IgG 100 ng/mL (fmol/cell well) [2]: 15400
Cyclic AMP produced (fmol/cell well), hMAb TSHR1 IgG 1 µg/mL (fmol/cell well) [2]: 16300
Substance: hMAb TSHR1 IgG (antibody)
